These are literature values, as cited in article PMC5713020.

One data set addresses p53 (Homo sapiens) (UniProt P04637). Kind of data set: SPR.
Data set [1] has as its target MDM4 (Homo sapiens) (UniProt O15151). Kind of data set: SPR (Langmuir isotherm).
For data set [2] the target is unchanged. The data set is described as follows: SPR. In general terms: In SPR one partner is held on a chip, and binding of the other changes the refractive index at the surface.
A further data set has as its target p73 (Homo sapiens) (UniProt O15350). Kind of data set: AFS.
A further data set concerns the target p63 DBD (Homo sapiens) (UniProt Q9H3D4). Kind of data set: AFS.

Several values for one entry are separate records, joined by “and”; a condition that tells them apart may be missing. Equal values may be shown once.

Sequence of MDM4 (Homo sapiens) (O15151 whole entry): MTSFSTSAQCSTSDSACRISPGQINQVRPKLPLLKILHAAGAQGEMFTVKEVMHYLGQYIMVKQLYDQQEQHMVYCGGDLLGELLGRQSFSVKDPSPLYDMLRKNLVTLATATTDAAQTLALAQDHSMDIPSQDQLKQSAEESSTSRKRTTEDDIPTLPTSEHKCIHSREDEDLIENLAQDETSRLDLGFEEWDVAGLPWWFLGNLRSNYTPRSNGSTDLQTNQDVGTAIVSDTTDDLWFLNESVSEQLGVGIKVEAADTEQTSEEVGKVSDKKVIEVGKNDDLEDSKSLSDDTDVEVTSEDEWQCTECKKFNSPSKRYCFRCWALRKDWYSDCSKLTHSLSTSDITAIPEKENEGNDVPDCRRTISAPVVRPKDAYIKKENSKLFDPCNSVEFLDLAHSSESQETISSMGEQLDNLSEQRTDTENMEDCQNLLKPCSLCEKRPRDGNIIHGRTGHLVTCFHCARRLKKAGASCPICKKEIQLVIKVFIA
Sequence of MDM2 (Q00987 whole entry): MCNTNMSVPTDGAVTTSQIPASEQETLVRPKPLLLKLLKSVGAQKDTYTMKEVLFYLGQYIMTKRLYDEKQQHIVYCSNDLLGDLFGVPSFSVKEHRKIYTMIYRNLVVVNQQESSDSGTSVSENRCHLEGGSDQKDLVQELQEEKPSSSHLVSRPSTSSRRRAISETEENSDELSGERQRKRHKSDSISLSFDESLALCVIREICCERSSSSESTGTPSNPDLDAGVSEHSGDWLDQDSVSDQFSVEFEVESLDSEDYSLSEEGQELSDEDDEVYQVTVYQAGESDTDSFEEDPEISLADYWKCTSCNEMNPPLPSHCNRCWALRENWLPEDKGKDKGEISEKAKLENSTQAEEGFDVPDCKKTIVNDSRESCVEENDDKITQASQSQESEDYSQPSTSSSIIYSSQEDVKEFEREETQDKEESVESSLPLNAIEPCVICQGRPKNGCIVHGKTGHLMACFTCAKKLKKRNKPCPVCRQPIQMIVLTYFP
Sequence of p28 p28 peptide (P00282 70-97): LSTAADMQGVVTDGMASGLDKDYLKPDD
Sequence of p53 (Homo sapiens) (P04637 whole entry): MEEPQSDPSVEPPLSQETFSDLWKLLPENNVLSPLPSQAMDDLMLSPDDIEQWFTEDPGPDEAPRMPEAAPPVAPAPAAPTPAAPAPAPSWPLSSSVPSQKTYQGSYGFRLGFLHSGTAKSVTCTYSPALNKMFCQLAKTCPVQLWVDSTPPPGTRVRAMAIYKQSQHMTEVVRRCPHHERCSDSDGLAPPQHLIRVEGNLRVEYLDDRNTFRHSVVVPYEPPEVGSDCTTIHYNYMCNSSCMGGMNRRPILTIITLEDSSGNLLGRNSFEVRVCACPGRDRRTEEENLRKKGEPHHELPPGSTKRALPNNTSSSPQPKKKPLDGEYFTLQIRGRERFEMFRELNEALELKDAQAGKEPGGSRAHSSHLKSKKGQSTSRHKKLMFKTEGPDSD
Sequence of Azurin (P00282 21-148): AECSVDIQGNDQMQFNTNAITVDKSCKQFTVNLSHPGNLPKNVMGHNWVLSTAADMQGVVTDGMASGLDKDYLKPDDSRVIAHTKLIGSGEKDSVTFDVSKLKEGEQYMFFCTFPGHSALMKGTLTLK
Sequence of p63 DBD (Homo sapiens) (Q9H3D4 166-362): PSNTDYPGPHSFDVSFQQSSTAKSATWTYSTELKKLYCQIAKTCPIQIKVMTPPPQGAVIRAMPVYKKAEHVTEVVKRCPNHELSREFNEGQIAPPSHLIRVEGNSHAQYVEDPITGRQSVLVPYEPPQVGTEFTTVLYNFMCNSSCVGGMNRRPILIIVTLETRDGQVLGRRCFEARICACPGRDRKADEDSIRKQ
Sequence of p73 (Homo sapiens) (O15350 whole entry): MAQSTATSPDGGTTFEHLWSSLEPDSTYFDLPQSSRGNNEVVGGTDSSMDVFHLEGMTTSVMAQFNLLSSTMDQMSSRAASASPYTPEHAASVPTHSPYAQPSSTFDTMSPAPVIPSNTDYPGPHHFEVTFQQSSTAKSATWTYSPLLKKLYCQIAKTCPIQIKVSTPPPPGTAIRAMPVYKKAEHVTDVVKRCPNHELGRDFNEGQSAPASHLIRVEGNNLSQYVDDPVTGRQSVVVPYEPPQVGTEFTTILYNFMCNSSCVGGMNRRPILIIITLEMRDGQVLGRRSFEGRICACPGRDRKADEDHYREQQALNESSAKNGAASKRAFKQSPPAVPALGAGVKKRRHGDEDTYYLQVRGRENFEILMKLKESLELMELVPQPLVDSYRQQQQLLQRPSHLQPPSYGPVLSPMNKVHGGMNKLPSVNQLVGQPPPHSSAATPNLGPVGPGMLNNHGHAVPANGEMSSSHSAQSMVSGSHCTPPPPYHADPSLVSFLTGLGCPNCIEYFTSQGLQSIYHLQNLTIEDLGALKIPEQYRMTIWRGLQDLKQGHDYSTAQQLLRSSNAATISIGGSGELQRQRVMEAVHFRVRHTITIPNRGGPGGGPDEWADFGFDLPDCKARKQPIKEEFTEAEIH

As a reminder, the Kd is the free concentration of one partner at which half of the binding sites on the other are occupied at equilibrium, for simple one-to-one binding. As for Azurin (from UniProt P00282), the Kd in the data set with p53 (Homo sapiens) is 1300 nM and 1200 nM. Regarding MDM2 (from UniProt Q00987), the values for the Kd in the data set with MDM4 (Homo sapiens) [1] and with MDM4 (Homo sapiens) [2] were 1000 nM and 390 nM, respectively.

For the substance p28 p28 peptide (from UniProt P00282), the results for the Kd in the data set with p73 (Homo sapiens) and with p63 DBD (Homo sapiens) were 100 nM and 1000 nM, respectively.
